According to the supplement of paper PMC10065799, “High-throughput profiling of sequence recognition by tyrosine kinases and SH2 domains using bacterial peptide display” (eLife, 2023):

Assays:
AncSZ = assay: phosphorylation enrichment, bacterial display (enrichment ratio); higher = better substrate or ligand; peptides without Tyr show the background
EPHB1 = EPHB1 (UniProt P54762); assay: as above
EPHB2 = EPHB2 (UniProt P29323); assay: as above
FGFR1 = FGFR1 (UniProt P11362); assay: as above
FGFR3 = FGFR3 (UniProt P22607); assay: as above
Sequence of FGFR3 (P22607 whole entry, looked up): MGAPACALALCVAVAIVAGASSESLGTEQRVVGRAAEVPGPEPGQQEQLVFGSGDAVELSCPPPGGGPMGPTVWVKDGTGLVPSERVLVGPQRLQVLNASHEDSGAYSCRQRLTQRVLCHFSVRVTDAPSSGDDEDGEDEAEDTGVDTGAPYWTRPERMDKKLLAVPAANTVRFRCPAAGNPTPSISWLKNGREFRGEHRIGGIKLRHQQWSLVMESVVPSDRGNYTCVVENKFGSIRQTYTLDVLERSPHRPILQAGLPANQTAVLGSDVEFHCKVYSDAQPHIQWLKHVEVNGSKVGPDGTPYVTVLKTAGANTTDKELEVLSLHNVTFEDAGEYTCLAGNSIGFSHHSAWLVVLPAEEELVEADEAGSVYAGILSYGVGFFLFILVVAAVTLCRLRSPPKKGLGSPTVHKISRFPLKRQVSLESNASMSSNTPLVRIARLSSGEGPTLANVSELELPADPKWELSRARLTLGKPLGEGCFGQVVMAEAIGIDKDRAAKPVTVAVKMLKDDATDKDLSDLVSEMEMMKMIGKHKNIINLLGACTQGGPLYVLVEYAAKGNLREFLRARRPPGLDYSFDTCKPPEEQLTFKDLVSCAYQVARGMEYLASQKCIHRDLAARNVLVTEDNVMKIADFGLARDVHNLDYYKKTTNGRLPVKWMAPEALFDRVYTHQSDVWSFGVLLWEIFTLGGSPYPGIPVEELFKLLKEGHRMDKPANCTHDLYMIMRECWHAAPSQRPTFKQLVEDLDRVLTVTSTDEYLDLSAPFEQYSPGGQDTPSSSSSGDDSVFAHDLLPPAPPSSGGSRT

Fer (mouse) = assay: as above
Fes = Fes (UniProt P07332); assay: as above
Sequence of Fes (P07332 whole entry, looked up): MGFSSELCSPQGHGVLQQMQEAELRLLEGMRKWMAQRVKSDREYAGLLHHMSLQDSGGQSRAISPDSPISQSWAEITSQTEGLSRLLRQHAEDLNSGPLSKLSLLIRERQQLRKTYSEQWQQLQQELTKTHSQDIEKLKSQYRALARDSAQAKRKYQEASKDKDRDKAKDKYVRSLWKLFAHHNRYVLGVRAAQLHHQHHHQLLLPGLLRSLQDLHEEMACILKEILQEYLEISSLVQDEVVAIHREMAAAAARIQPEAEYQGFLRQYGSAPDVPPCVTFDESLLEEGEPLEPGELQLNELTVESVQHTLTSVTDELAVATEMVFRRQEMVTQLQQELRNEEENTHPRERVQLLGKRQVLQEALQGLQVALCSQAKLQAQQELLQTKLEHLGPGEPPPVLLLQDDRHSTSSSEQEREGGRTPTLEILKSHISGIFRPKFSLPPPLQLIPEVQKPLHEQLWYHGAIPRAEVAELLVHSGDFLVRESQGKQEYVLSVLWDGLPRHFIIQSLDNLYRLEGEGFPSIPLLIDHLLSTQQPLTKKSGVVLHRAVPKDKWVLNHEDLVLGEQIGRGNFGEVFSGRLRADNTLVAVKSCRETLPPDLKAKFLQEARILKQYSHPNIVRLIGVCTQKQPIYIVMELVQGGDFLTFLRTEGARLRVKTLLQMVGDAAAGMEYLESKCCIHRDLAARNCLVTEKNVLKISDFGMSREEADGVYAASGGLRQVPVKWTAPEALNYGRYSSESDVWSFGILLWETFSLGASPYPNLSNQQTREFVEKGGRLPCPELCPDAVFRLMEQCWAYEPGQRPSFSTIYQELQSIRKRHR

Fyn = Fyn (UniProt P06241); assay: as above
Sequence of Fyn (P06241 whole entry, looked up): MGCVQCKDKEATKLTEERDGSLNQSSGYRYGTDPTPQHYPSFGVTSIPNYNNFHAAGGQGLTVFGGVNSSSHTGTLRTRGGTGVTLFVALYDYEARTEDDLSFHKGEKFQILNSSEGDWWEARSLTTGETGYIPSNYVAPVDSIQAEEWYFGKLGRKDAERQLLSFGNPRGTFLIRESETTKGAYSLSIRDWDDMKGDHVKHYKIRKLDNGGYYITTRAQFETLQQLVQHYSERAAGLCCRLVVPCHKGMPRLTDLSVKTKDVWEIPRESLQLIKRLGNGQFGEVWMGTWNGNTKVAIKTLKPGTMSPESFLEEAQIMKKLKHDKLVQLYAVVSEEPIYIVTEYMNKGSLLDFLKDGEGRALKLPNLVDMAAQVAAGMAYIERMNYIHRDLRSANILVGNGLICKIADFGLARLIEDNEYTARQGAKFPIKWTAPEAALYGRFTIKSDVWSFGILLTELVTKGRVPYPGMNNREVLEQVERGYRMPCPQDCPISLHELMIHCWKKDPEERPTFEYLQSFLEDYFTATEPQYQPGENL

Hck = Hck (UniProt P08631); assay: as above
Sequence of Hck (P08631 whole entry, looked up): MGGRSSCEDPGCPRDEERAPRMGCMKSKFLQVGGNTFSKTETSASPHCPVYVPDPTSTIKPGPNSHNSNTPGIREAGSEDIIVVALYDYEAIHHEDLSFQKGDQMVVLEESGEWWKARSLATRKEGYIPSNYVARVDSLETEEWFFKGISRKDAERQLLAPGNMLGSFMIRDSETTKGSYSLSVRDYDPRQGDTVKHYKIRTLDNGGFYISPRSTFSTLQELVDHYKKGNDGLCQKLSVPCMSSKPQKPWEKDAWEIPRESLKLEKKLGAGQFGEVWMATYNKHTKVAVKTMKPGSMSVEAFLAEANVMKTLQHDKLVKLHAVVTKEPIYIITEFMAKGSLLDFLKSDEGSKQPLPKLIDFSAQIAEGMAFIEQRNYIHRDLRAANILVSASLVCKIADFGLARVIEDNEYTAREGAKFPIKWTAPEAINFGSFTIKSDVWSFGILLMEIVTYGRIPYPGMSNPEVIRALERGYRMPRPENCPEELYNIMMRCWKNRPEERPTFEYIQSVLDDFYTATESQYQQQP

Jak2 = Jak2 (UniProt O60674); assay: as above
MERTK = MERTK (UniProt Q12866); assay: as above
Sequence of MERTK (Q12866 whole entry, looked up): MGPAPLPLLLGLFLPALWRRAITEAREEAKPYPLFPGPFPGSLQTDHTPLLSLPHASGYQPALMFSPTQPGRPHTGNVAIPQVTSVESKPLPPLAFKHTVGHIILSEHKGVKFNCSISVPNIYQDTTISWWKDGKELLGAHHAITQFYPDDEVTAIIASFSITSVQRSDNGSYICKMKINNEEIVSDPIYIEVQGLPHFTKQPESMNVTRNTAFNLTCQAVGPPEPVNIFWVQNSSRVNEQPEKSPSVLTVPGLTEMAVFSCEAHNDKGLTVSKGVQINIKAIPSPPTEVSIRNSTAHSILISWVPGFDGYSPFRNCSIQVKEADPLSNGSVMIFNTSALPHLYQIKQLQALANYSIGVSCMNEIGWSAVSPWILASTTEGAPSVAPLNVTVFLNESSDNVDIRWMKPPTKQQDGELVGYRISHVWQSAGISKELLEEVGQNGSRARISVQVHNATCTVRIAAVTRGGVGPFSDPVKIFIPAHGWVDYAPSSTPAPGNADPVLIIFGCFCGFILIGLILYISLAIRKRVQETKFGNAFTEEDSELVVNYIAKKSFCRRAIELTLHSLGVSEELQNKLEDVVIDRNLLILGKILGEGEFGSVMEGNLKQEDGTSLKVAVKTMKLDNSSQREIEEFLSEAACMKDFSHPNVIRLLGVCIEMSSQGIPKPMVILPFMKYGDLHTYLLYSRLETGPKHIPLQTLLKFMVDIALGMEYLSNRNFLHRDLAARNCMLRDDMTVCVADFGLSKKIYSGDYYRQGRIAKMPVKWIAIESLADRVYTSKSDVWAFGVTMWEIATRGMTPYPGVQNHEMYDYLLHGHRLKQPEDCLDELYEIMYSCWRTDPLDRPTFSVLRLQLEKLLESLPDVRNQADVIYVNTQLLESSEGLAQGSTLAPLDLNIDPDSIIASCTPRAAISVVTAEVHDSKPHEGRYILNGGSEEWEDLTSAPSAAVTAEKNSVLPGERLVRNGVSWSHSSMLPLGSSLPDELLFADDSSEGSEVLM

c-Abl (mouse) = assay: as above
c-Src = assay: as above
Grb2 SH2 = Grb2 SH2 (UniProt P62993); assay: SH2 binding enrichment of the phosphorylated peptide, bacterial display (enrichment ratio); higher = better substrate or ligand; peptides without Tyr show the background
SHP2-C SH2 = assay: as above
c-Src SH2 = assay: as above
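Throughout, for SH2 binding enrichment of the phosphorylated peptide, bacterial display: peptide library displayed on the E. coli surface as eCPX fusions, selected cells deep-sequenced, score is each peptide's frequency after selection divided by its frequency in the input.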
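Throughout, for phosphorylation enrichment, bacterial display: 11-residue human phosphosite peptides and single-mutation variants displayed on the E. coli surface, counted by deep sequencing, each peptide's frequency after selection divided by its frequency in the unselected input library; frequency after pTyr selection over input frequency; kinase dosed for 20-30% of maximal phosphorylation in three min.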

Sequence of FGFR1 (P11362 whole entry, looked up): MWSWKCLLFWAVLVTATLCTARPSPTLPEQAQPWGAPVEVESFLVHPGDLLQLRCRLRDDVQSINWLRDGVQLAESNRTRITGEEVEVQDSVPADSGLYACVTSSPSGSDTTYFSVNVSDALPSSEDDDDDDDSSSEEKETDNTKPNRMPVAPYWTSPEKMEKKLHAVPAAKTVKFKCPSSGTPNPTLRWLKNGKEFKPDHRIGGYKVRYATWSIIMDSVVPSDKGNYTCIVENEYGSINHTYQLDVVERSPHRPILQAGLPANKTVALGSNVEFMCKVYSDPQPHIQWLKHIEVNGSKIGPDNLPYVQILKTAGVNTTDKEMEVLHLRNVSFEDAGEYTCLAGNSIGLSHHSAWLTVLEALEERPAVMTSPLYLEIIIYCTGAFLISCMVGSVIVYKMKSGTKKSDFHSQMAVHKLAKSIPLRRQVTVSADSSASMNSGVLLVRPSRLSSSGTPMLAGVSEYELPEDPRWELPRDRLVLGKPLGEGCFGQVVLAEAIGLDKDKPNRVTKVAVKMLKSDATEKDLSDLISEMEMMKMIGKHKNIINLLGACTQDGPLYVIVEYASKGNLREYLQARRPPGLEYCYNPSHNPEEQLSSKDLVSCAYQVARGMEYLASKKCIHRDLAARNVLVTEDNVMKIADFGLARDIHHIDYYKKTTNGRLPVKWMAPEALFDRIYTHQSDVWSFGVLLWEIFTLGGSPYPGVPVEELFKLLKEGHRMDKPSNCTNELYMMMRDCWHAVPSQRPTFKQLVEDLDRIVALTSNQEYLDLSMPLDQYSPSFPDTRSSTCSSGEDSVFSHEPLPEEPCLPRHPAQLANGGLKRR

Row | SH2 binding enrichment (Grb2 SH2) | SH2 binding enrichment (SHP2-C SH2) | SH2 binding enrichment (c-Src SH2) | Sequence | phosphorylation enrichment (AncSZ) | phosphorylation enrichment (EPHB1) | phosphorylation enrichment (EPHB2) | phosphorylation enrichment (FGFR1) | phosphorylation enrichment (FGFR3) | phosphorylation enrichment (Fer (mouse)) | phosphorylation enrichment (Fes) | phosphorylation enrichment (Fyn) | phosphorylation enrichment (Hck) | phosphorylation enrichment (Jak2) | phosphorylation enrichment (MERTK) | phosphorylation enrichment (c-Abl (mouse)) | phosphorylation enrichment (c-Src)
1 | 0.672 | 0.787 | 0.491 | SVTSTYSPALN [TP53_Y126_C124S] | 0.641 | 0.437 | 0.426 | 0.511 | 0.398 | 0.436 | 0.712 | 0.432 | 0.459 | 0.465 | 0.379 | 0.586 | 0.488
2 | 0.89 | 0.73 | 0.735 | SVVVPYEPPDV [TP53_Y220_E224D] | 0.984 | 0.554 | 0.528 | 0.524 | 0.612 | 0.456 | 0.932 | 0.429 | 0.447 | 0.752 | 0.337 | 0.603 | 0.415
3 | 0.874 | 0.778 | 0.769 | SVVVPYEPPED [TP53_Y220_V225D] | 1.31 | 0.607 | 0.641 | 0.545 | 0.759 | 0.549 | 1.4 | 0.479 | 0.544 | 1.15 | 0.441 | 0.772 | 0.491
4 | 0.88 | 0.658 | 0.987 | SVVVPYEPPEF [TP53_Y220_V225F] | 1.01 | 0.558 | 0.524 | 0.49 | 0.598 | 0.449 | 1.05 | 0.427 | 0.461 | 0.993 | 0.374 | 0.743 | 0.509
5 | 0.741 | 0.717 | 0.683 | SVVVPYEPPEL [TP53_Y220_V225L] | 0.905 | 0.489 | 0.524 | 0.459 | 0.666 | 0.491 | 0.869 | 0.494 | 0.503 | 0.811 | 0.424 | 0.54 | 0.437
6 | 0.972 | 0.689 | 1.66 | SVVVPYESPEV [TP53_Y220_P222S] | 1.36 | 0.57 | 0.609 | 0.561 | 0.647 | 0.488 | 1.13 | 0.578 | 0.566 | 0.867 | 0.463 | 0.73 | 0.509
7 | 0.722 | 0.761 | 0.729 | SVVVTYEPPEV [TP53_Y220_P219T] | 1.57 | 1.06 | 1.61 | 0.493 | 0.708 | 0.752 | 1.32 | 0.516 | 0.697 | 0.969 | 0.779 | 0.961 | 0.623
8 | 0.625 | 0.63 | 0.434 | SYCYRYRCAPR [SUMF1_Y344_A348P] | 0.644 | 0.441 | 0.418 | 0.511 | 0.716 | 0.528 | 0.572 | 0.436 | 0.43 | 0.459 | 0.458 | 0.493 | 0.488
9 | 1.29 | 0.956 | 0.82 | TCFDKYTGSTF [FN1_Y101_N104S_YF] | 0.739 | 0.494 | 0.533 | 0.443 | 0.699 | 0.469 | 1.12 | 0.408 | 0.51 | 0.646 | 0.448 | 0.537 | 0.529
10 | 0.827 | 0.626 | 0.439 | TDDMRYPMKSE [TGDS_Y302_N298D] | 0.77 | 0.378 | 0.527 | 0.529 | 0.621 | 0.518 | 0.863 | 0.43 | 0.42 | 0.694 | 0.488 | 0.651 | 0.455
11 | 0.968 | 0.714 | 0.507 | TDHLRYFDSNK [ARAP1_Y359] | 1.04 | 0.611 | 0.442 | 0.414 | 0.573 | 0.456 | 0.794 | 0.428 | 0.451 | 0.665 | 0.466 | 1.14 | 0.41
12 | 0.751 | 2.07 | 1.51 | TDLAYYLVREG [ASL_Y376_K380E] | 1.54 | 0.578 | 0.706 | 9.61 | 7.06 | 0.466 | 0.905 | 0.734 | 0.955 | 3.04 | 1.34 | 0.579 | 1.67
13 | 0.636 | 0.397 | 0.626 | TEALFYTDDPA [ADPRS_Y75_T79P_YF] | 1.62 | 1.05 | 0.894 | 0.734 | 1.3 | 0.863 | 1.82 | 0.645 | 0.76 | 1.65 | 0.699 | 1.25 | 0.797
14 | 0.912 | 0.847 | 0.856 | TEALYYTDDTA [ADPRS_Y75] | 1.46 | 1.31 | 0.78 | 3.91 | 4.22 | 1.97 | 2.09 | 2.63 | 1.82 | 0.833 | 4.21 | 0.633 | 1.9
15 | 1.01 | 0.698 | 0.644 | TEDAEYDVQSK [PTCHD3_Y335_P333A] | 1.38 | 0.611 | 0.609 | 0.515 | 0.689 | 0.606 | 1.14 | 0.539 | 0.591 | 1.07 | 0.492 | 0.848 | 0.535
16 | 0.793 | 0.643 | 0.777 | TEQMAYCPIQC [SHC4_Y403] | 1.17 | 0.434 | 0.676 | 0.609 | 0.737 | 1.14 | 1.02 | 0.421 | 0.949 | 1.26 | 0.678 | 0.754 | 0.949
